“And” between values parts separate entries of the source, which are not always exact repeats. Equal values may be shown once.
Biological target: α7/5HT3A chimaeric receptor (control, non-mutant)
Assay: radioligand binding

125I-labelled α-bungarotoxin (from UniProt P60615 22-95) (natural protein)
Kd: 11.5 nM and 12.2 nM and 8.1 nM

Reference: publication PMC3920732
